The source of these data is doi:10.1101/2021.12.20.473529 (bioRxiv, 2021).

Substitutions are numbered along the chain they refer to. Names and notes keep the numbering of the source.

The data set deals with the molecule itself. Description: SEC-MALS. On the technique in general: Size exclusion chromatography separates by hydrodynamic size, large species first.

B1: HNF-1A DD-DBD (HNF-1A 1-279), wild type (domain or fragment, human, UniProt P20823 1-279, looked up)
chain: MVSKLSQLQTELLAALLESGLSKEALIQALGEPGPYLLAGEGPLDKGESCGGGRGELAELPNGLGETRGSEDETDDDGEDFTPPILKELENLSPEEAAHQKAVVETLLQEDPWRVAKMVKSYLQQHNIPQREVVDTTGLNQSHLSQHLNKGTPMKTQKRAALYTWYVRKQREVAQQFTHAGQGGLIEEPTGDELPTKKGRRNRFKWGPASQQILFQAYERQKNPSKEERETLVEECNRAECIQRGVSPSQAQGLGSNLVTEVRVYNWFANRRKEEAFRH
In the case of B1, the “stoichiometry N” value was found to be 2.

B2: HNF-1A DD-DBD/N266S (domain or fragment, human, UniProt P20823 1-279, looked up)
chain: B1 chain with N266S
With B2, the “stoichiometry N” value turned out to be 2.

B3: HNF-1A DD-DBD/R263C (domain or fragment, human, UniProt P20823 1-279, looked up)
chain: B1 chain with R263C
In the case of B3, the “stoichiometry N” value was 2.

For orientation: stoichiometry N means a count of units in the complex or per binding partner.
